B1: CPEB3 Ribozyme (parent)
chain: GGGGGCCACAGCAGAAGCGUUCACGUCGCGGCCCCUGUCAGAUUCUGGUGAAUCUGCGAAUUCUGCUGU

Variants of: B1
Test: self-cleavage, relative activity (ratio to wild type); higher = more cleavage; co-transcriptional

Variant	self-cleavage
CGGGGCCACAGCAGAAGCGUUCACGUCGCGGCCCCUGUCAGAUUCUGGUGAAUCUGCGCAUUCUGCUGU [G1C A59C]	0.27
CGGGGCCACAGCAGAAGCGUUCACGUCGCGGCCCCUGUCAGAUUCUGGUGAAUCUGCGGAUUCUGCUGU [G1C A59G]	0.26
CGGGGCCACAGCAGAAGCGUUCACGUCGCGGCCCCUGUCAGAUUCUGGUGAAUCUGCGUAUUCUGCUGU [G1C A59U]	0.147
CGGGGCCACAGCAGAAGCGUUCACGUCGCGGCCCAUGUCAGAUUCUGGUGAAUCUGCGAAUUCUGCUGU [G1C C35A]	0.069
CGGGGCCACAGCAGAAGCGUUCACGUCGCGGCCCGUGUCAGAUUCUGGUGAAUCUGCGAAUUCUGCUGU [G1C C35G]	0.161
CGGGGCCACAGCAGAAGCGUUCACGUCGCGGCCCUUGUCAGAUUCUGGUGAAUCUGCGAAUUCUGCUGU [G1C C35U]	0.167
CGGGGCCACAGCAGAAGCGUUCACGUUGCGGCCCCUGUCAGAUUCUGGUGAAUCUGCGAAUUCUGCUGU [G1C C27U]	0.131
CGGGGCCACAGCAGAAGCGUUCACGUGGCGGCCCCUGUCAGAUUCUGGUGAAUCUGCGAAUUCUGCUGU [G1C C27G]	0.124
CGGGGCCACAGCAGAAGCGUUCACGUAGCGGCCCCUGUCAGAUUCUGGUGAAUCUGCGAAUUCUGCUGU [G1C C27A]	0.211
CGGGGCCACAGCAGAAGCGUUCACGUCGCGGCCCCUGUCAGAUUGUGGUGAAUCUGCGAAUUCUGCUGU [G1C C45G]	0.182
CGGGGCCACAGCAGAAGCGUUCACGUCGCGGCCCCUGUCAGAUUAUGGUGAAUCUGCGAAUUCUGCUGU [G1C C45A]	0.252
CGGGGCCACAGCAGAAGCGUUCACGUCGGGGCCCCUGUCAGAUUCUGGUGAAUCUGCGAAUUCUGCUGU [G1C C29G]	0.106
CGGGGCCACAGCAGAAGCGUUCACGUCGUGGCCCCUGUCAGAUUCUGGUGAAUCUGCGAAUUCUGCUGU [G1C C29U]	0.105
CGGGGCCACAGCAGAAGCGUUCACGUCGCGGCCCCUGUUAGAUUCUGGUGAAUCUGCGAAUUCUGCUGU [G1C C39U]	0.227
CGGGGCCACAGCAGAAGCGUUCACGUCGCGGCCCCUGUGAGAUUCUGGUGAAUCUGCGAAUUCUGCUGU [G1C C39G]	0.217
CGGGGCCACAGAAGAAGCGUUCACGUCGCGGCCCCUGUCAGAUUCUGGUGAAUCUGCGAAUUCUGCUGU [G1C C12A]	0.164
CGGGGCCACAGGAGAAGCGUUCACGUCGCGGCCCCUGUCAGAUUCUGGUGAAUCUGCGAAUUCUGCUGU [G1C C12G]	0.238
CGGGGCCACAGUAGAAGCGUUCACGUCGCGGCCCCUGUCAGAUUCUGGUGAAUCUGCGAAUUCUGCUGU [G1C C12U]	0.252
CGGGGCCACAGCAGAAGCGUUCACGUCGCGGCCCCUGUCAGAUUCUGGUGAUUCUGCGAAUUCUGCUGU [G1C A52U]	0.201
CGGGGCCACAGCAGAAGCGUUGACGUCGCGGCCCCUGUCAGAUUCUGGUGAAUCUGCGAAUUCUGCUGU [G1C C22G]	0.0703

Variant	self-cleavage
CGGGGCCACAGCAGAAGCGUUAACGUCGCGGCCCCUGUCAGAUUCUGGUGAAUCUGCGAAUUCUGCUGU [G1C C22A]	0.0757
CGGGGCCACAGCAGAAGCGUUCACGUCGCGGACCCUGUCAGAUUCUGGUGAAUCUGCGAAUUCUGCUGU [G1C C32A]	0.279
CGGGGCCACAGCAGAAGCGUUCACGUCGCGGUCCCUGUCAGAUUCUGGUGAAUCUGCGAAUUCUGCUGU [G1C C32U]	0.327
CGGGGGCACAGCAGAAGCGUUCACGUCGCGGCCCCUGUCAGAUUCUGGUGAAUCUGCGAAUUCUGCUGU [G1C C6G]	0.658
CGGGGUCACAGCAGAAGCGUUCACGUCGCGGCCCCUGUCAGAUUCUGGUGAAUCUGCGAAUUCUGCUGU [G1C C6U]	0.282
CGGGGACACAGCAGAAGCGUUCACGUCGCGGCCCCUGUCAGAUUCUGGUGAAUCUGCGAAUUCUGCUGU [G1C C6A]	0.26
CGGGGCCAUAGCAGAAGCGUUCACGUCGCGGCCCCUGUCAGAUUCUGGUGAAUCUGCGAAUUCUGCUGU [G1C C9U]	0.246
CGGGGCCAGAGCAGAAGCGUUCACGUCGCGGCCCCUGUCAGAUUCUGGUGAAUCUGCGAAUUCUGCUGU [G1C C9G]	0.203
CGGGGCCACAGCAGAAGCGUUCACGUCGCGGCCCCUGUCAGAUUCUGGUGAAUCUGCGACUUCUGCUGU [G1C A60C]	0.0756
CGGGGCCACAGCAGAAGCGUUCACGUCGCGGCCCCUGUCAGAUUCUGGUGAAUCUGCGAGUUCUGCUGU [G1C A60G]	0.273
CGGGGCCACAGCAGAAGCGUUCAAGUCGCGGCCCCUGUCAGAUUCUGGUGAAUCUGCGAAUUCUGCUGU [G1C C24A]	0.0947
CGGGGCAACAGCAGAAGCGUUCACGUCGCGGCCCCUGUCAGAUUCUGGUGAAUCUGCGAAUUCUGCUGU [G1C C7A]	0.144
CGGGGCGACAGCAGAAGCGUUCACGUCGCGGCCCCUGUCAGAUUCUGGUGAAUCUGCGAAUUCUGCUGU [G1C C7G]	0.128
CGGGGCCACAGCAGAAGCGUUCACGUCGCGGCUCCUGUCAGAUUCUGGUGAAUCUGCGAAUUCUGCUGU [G1C C33U]	0.282
CGGGGCCACAGCAGAAGCGUUCACGUCGCGGCACCUGUCAGAUUCUGGUGAAUCUGCGAAUUCUGCUGU [G1C C33A]	0.197
CGGGGCCACAGCAGAAGCGUUCACGUCGCGGCGCCUGUCAGAUUCUGGUGAAUCUGCGAAUUCUGCUGU [G1C C33G]	0.118
CGGGGCCACAGCAGAAGCGUUCACGUCGCGGCCUCUGUCAGAUUCUGGUGAAUCUGCGAAUUCUGCUGU [G1C C34U]	0.236
CGGGGCCACAGCAGAAGCGUUCACGUCGCGGCCGCUGUCAGAUUCUGGUGAAUCUGCGAAUUCUGCUGU [G1C C34G]	0.159
CGGGGCCACAGCAGAAGCGUUCACGUCGCGGCCACUGUCAGAUUCUGGUGAAUCUGCGAAUUCUGCUGU [G1C C34A]	0.152

— the RNAGym collection of RNA variant scans (doi:10.7554/elife.80360)
